The experiment deals with T1, wild-type Gαi1 subunit (human, UniProt P63096 1-354).
T1 construct: Gαi1, human, wild type; the α chain of m4; source: Sf9 or Hi5 insect cells, co-expressed with Gβ1 and Gγ2, purified as heterotrimer (TALON, SEC)
Briefly: cryo-EM structure; purified ET-1-bound ETBR mixed with 1.2 molar excess of wild-type or dominant negative Gi1 heterotrimer (20-24 °C, 2 h), apyrase and λ-phosphatase, then 1.2 molar excess of scFv16; complex purified on 2A5 anti-ETBR resin and by SEC in LMNG/CHS/GDN with 0.1 μM ET-1; single-particle cryo-EM. The following applies: both partners purified.

T1 sequence (P63096 whole entry): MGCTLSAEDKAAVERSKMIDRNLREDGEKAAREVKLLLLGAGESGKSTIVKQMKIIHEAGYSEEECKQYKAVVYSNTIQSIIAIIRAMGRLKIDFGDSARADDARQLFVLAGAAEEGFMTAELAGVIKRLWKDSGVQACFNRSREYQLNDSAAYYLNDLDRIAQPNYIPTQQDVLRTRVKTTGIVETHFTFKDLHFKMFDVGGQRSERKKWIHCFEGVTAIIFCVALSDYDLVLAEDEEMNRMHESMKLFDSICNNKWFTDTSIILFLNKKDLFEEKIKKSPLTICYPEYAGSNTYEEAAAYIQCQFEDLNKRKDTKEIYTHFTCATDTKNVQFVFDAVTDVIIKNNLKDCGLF

B1: endothelin type B receptor, thermostabilized construct used for cryo-EM (R124Y, C396A, C400A, C405A, L66-S407 after 3C cleavage) (receptor, human, UniProt P24530 66-407, looked up)
chain: LAPAEVPKGDRTAGSPPRTISPPPCQGPIEIKETFKYINTVVSCLVFVLGIIGNSTLLYIIYKNKCMRNGPNILIASLALGDLLHIVIDIPINVYKLLAEDWPFGAEMCKLVPFIQKASVGITVLSLCALSIDRYRAVASWSRIKGIGVPKWTAVEIVLIWVVSVVLAVPEAIGFDIITMDYKGSYLRICLLHPVQKTAFMQFYKTAKDWWLFSFYFCLPLAITAFFYTLMTCEMLRKKSGMQIALNDHLKQRREVAKTVFCLVLVFALCWLPLHLSRILKLTLYNQNDPNRCELLSFLLVLDYIGINMASLNSCINPIALYLVSKRFKNAFKSALCCWAQS
notes: endothelin type B receptor (ETBR), human; C-terminus truncated at S407, followed by a 3C site and EGFP-His tag that was cleaved; Residues of the 3C sites probably remain after cleavage (GP before L66, LEVLFQ after S407); also called ETBR; ETB receptor; source: Sf9, purified (TALON, 3C cleavage, SEC) in LMNG/CHS with ET-1; not shown: Flag, N-terminal, cleaved; EGFP-His9, C-terminal, cleaved
Take B1: the binding result was “binds”.

For the origin of these results see publication PMC11484851, “Structure of endothelin ETB receptor–Gi complex in a conformation stabilized by unique NPxxL motif” (Communications Biology, 2024).
